1 molecule from patent US20190002886A1, “SIGNALING CENTERS OF ERYTHROID DIFFERENTIATION” (THE CHILDREN'S MEDICAL CENTER CORPORATION, priority 2017, published 2019) can be followed below.

The test deals with human CD34+ cells. Description: FACS analysis of erythroid markers CD71 and CD235a on differentiating CD34+ cells. It is filed as cell-based. The following applies: 25 ng/ml hrBMP4, treated for two days starting from D3 of differentiation. The method, then: To establish the role of BMP signaling in erythroid differentiation, differentiating CD34^+ cells were treated with human recombinant BMP4 (hrBMP4) to activate the pathway, or with dorsomorphin, a known inhibitor of BMP signaling. Knowing that erythroid lineage commitment occurs around D3, differentiating cells were treated for two days starting from D3, to test the effects of these signals on erythrocyte commitment. […] Human CD34+ cells, isolated from peripheral blood of granulocyte colony-stimulating factor-mobilized healthy volunteers, were obtained from the Fred Hutchinson Cancer Research Center. The cells were maintained and differentiated as previously described (Sankaran et al., 2008b; Trompouki et al.,2011). Control and treated stage-matched CD34 cells were washed in PBS and stained with propidium iodide (PI), 1:60 APC-conjugated CD235a (eBioscience, clone HIR2, 17-9987-42), 1:60 FITC-conjugated CD71 (eBioscience, OKT9, 11-0719-42), 1:60 PE-conjugated CD41a (eBioscience, HIP8, 12-0419-42) and 1:60 PE-conjugated CD11b (eBioscience, ICRF44, 12-0118-42). BD Bioscience LSR II flow cytometer was used to record raw FACS data, which were analyzed subsequently using FlowJo 8.6.9 10.0.7 (TreeStar). Human CD34^+ cells, isolated from peripheral blood of granulocyte colony-stimulating factor mobilized healthy volunteers, were purchased from the Fred Hutchinson Cancer Research Center. […]
(In general: In flow cytometry, cells or beads pass a laser one at a time.)

B1: BMP4: human recombinant BMP4 (R&D) used to activate the BMP pathway (protein)
chain: MIPGNRMLMVVLLCQVLLGGASHASLIPETGKKKVAEIQGHAGGRRSGQSHELLRDFEATLLQMFGLRRRPQPSKSAVIPDYMRDLYRLQSGEEEEEQIHSTGLEYPERPASRANTVRSFHHEEHLENIPGTSENSAFRFLFNLSSIPENEVISSAELRLFREQVDQGPDWERGFHRINIYEVMKPPAEVVPGHLITRLLDTRLVHHNVTRWETFDVSPAVLRWTREKQPNYGLAIEVTHLHQTRTHQGQHVRISRSLPQGSGNWAQLRPLLVTFGHDGRGHALTRRRRAKRSPKHHSQRARKKNKNCRRHSLYVDFSDVGWNDWIVAPPGYQAFYCHGDCPFPLADHLNSTNHAIVQTLVNSVNSSIPKACCVPTELSAISMLYLDEYDKVVLKNYQEMVVEGCGCR
For B1, the “increase in erythroid cell counts (CD71 and CD235a)” value is recorded as 1.5-2 fold.
